In patent US20120034604A1:

Target: polyclonal anti-QRFSR antibody 3RBF-SAB
Experiment: competitive ELISA: free Opiorphin against coated Y-(PE)12-QRFSR for antibody 3RBF-SAB

- IC50: 0.03 µg/mL
Binder: QRFSR [Opiorphin QRFSR-peptide]
